Target: secreted FLAG peptide-fused G6 polypeptide G6sec2 (produced with the pVL1393-F2G6sec2-derived recombinant virus) (human) (UniProt Q9BYG0)
Assay: Western blotting with anti-FLAG antibody

strength of band (band of G6sec1 eluate defined as 1) (relative to G6sec1 = 1): 1.05
Substance: anti-FLAG peptide antibody (of YEAST AMINO-TERMINAL FLAG EXPRESSION KIT, manufactured by SIGMA)
